The source of these data is publication PMC9769727, “Glucose-6-Phosphate Dehydrogenase, ZwfA, a Dual Cofactor-Specific Isozyme Is Predominantly Involved in the Glucose Metabolism of Pseudomonas bharatica CSV86^T” (Microbiology Spectrum, 2022).

Data set [1] addresses Glucose-6-phosphate dehydrogenase ZwfA from Pseudomonas bharatica CSV86T (Pseudomonas bharatica CSV86T). The data set is described as follows: SEC; ENrich SEC 650 column (CV 24 mL, Bio-Rad) in Buffer A (Tris-Cl 50 mM, pH 7.5), 4°C; native molecular weight from a semilog plot of Ve/V0 against standard proteins, compared with the subunit weight by SDS-PAGE.
The target of data set [2] is Glucose-6-phosphate dehydrogenase ZwfC from Pseudomonas bharatica CSV86T (Pseudomonas bharatica CSV86T). The data set can be described thus: SEC; Superdex 200 Increase 10/300 GL column (CV 24 mL, GE Healthcare) in Buffer A (Tris-Cl 50 mM, pH 7.5), 4°C; native molecular weight from a semilog plot of Ve/V0 against standard proteins, compared with the subunit weight by SDS-PAGE. For orientation: Size exclusion chromatography separates by hydrodynamic size, large species first.

Substrate in data set [3]: NC(=O)c1ccc[n+]([C@@H]2O[C@H](COP(=O)(O)OP(=O)(O)OC[C@H]3O[C@@H](n4cnc5c(N)ncnc54)[C@H](OP(=O)(O)O)[C@@H]3O)[C@@H](O)[C@H]2O)c1
The data set is described as follows: purified protein. The class given is biochemical, Pseudomonas bharatica. Particulars: 5 mM G6P fixed, Tris-Cl 50 mM, pH 8.25, hyperbolic.

Substrate in data set [4]: NC(=O)c1ccc[n+]([C@@H]2O[C@H](COP(=O)(O)OP(=O)(O)OC[C@H]3O[C@@H](n4cnc5c(N)ncnc54)[C@H](O)[C@@H]3O)[C@@H](O)[C@H]2O)c1
The data set can be described thus: purified protein. The class given is biochemical, Pseudomonas bharatica. Particulars: 5 mM G6P fixed, Tris-Cl 50 mM, pH 8.25, hyperbolic.

As to “Glucose-6-phosphate dehydrogenase ZwfA from Pseudomonas bharatica CSV86T (enzyme)”, the stoichiometry N (as a rule, a count of units in the complex or per binding partner) in data set [1] is 4.
Take “Glucose-6-phosphate dehydrogenase ZwfC from Pseudomonas bharatica CSV86T (enzyme)”: the stoichiometry N in data set [2] was determined as 4.

B1: ZwfA (Pseudomonas bharatica CSV86) (protein)
chain: MSSISVEPCTFALFGALGDLALRKLFPALYQLDRAGLLHERTRLLALAREPGSVQEHLASIEAHLHEFVASDTLDTTVLQRFLGRLNYLHMDFLDAQAYPALAAQVTPEAPLIAYFATPAAVYGGICENLAKVGLAERTRVVLEKPIGHDLESSRRVNDAVAQFFPENRIYRIDHYLGKETVQNLIALRFANSLFETQWNQTSISHVEISVAEKVGIEGRWGYFDKAGQLRDMIQNHLLQLLCLIAMDPPSDLSADSIRDEKVKVLKALAPITGEGLGTRVVRGQYIAGHSDGRALPGYLDEENANTHSDTETFVALRADIRNWRWAGVPFYLRTGKRMPQKLSQIVIHFKEPQHYIFAAEQRLQIGNKLIIRLQPDEGISLRVMTKEQGLDKGMQLRSSPLQLNFSDGSFRSARIPDAYERLLLEVMRGNQNLFVRKDEIEYAWKWCDQLIAGWKQSGEAPRPYAAGTWGPVAAVALITRDGRSWYGDI
notes: full length, 490 aa (1473 nt), pET28a N-terminal 6xHis tag, E. coli BL21(DE3), Ni-NTA; subunit ~56 kDa, homotetramer ~217 kDa; part of zwfA-pgl-eda operon; Arg49, Leu17
Consider B1, for which, in “purified protein [3]”, the Km (as a rule, the substrate concentration at which the rate is half of its maximum) stood at 110.5 ± 20 µM; the Vmax – broadly, the top rate of the reaction or transport when substrate is in excess – worked out at 201 ± 28 µmol/min/mg; the kcat (commonly the number of substrate molecules converted per active site and unit of time at saturation) was 187 ± 26 s⁻¹; the kcat/Km (commonly the turnover number divided by the Michaelis constant) came out at 1.7e+06 ± 300000 M⁻¹ s⁻¹. In the data set “purified protein [4]”, the Km stood at 366 ± 70 µM, the Vmax worked out at 329 ± 74 µmol/min/mg, the kcat stood at 306 ± 69 s⁻¹ and the kcat/Km stood at 860000 ± 150000 M⁻¹ s⁻¹.
